± gives the uncertainty stated by the source.
Experiment: amyloid nucleation score (Sup35N fusion, yeast selection) (log enrichment); library NNK2; higher = more nucleation; inactive = no reads after selection
Summary of the method: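 Libraries of peptides of 20 random codons fused to Sup35N were expressed in psi-negative yeast and induced 24 hours with 100 μM copper sulfate. Selection was 7 days at 30°C on medium lacking adenine and uracil, and plasmid inserts were Illumina-sequenced before and after selection. Nucleation score is the DiMSum log enrichment of output over input reads, centred on the mode score of non-aggregating sequences, and sequences with under 100 input reads were left out.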
LIVGAIASLHHTLQVNGSPN showed an amyloid nucleation score of 4.59 ± 0.11.
In the case of LIVWT, the amyloid nucleation score is reported as 0.593 ± 0.54.
In the case of LIWVRGNEGRFGGRLVLVVE, the amyloid nucleation score is reported as “inactive”.
In the case of LKCSFAVTDAWIGNRRAQRQ, the amyloid nucleation score is reported as 1 ± 0.2.
In the case of LKITRRSALV, the amyloid nucleation score is reported as 0.186 ± 0.76.
In the case of LKNLGYNMSPMYHWHCSSSK, the amyloid nucleation score is reported as -0.003 ± 1.1.
In the case of LKPSSFVYIITDQFSNHIVM, the amyloid nucleation score is reported as 5.84 ± 0.065.
Work on LKQTGQLRVMSN yielded an amyloid nucleation score of 0.039 ± 0.79.
LKRGYSFMRCLGVWRFQEPD gave an amyloid nucleation score of -0.158 ± 0.25.
LKRNMWFLYRGTFARSYYAN gave an amyloid nucleation score of -1.03 ± 0.55.
With LKSSWPFDVKKAYKCYVKFA the amyloid nucleation score was 0.006 ± 0.65.
Substance LKTACVDALLH has an amyloid nucleation score of 0.258 ± 0.26.
For LKWRVRWAIKED, the amyloid nucleation score was 0.547 ± 0.21.
Substance LLCSPEGVYGKCTGGFRQTL has an amyloid nucleation score of 0.581 ± 0.39.
With LLDLALRLTMGLITKHEANK the amyloid nucleation score was 3.61 ± 0.064.
In the case of LLDYLYDIGRHTKGK, the amyloid nucleation score is reported as -0.337 ± 1.1.
Substance LLEVGSKKCGHPLSTYSKAN has an amyloid nucleation score of 0.463 ± 0.48.
LLEYNIFLRSIVFDGREEWA gave an amyloid nucleation score of 3.18 ± 0.058.
For LLFCKPDAHFVLCSFYPLML, the amyloid nucleation score was “inactive”.
Work on LLFINGHAMTGAVYTITKLT yielded an amyloid nucleation score of -0.302 ± 0.36.
With LLFTLGNGGFSLRYKK the amyloid nucleation score was -0.265 ± 0.23.
In the case of LLFVLAKGNKTCSTPCIEIH, the amyloid nucleation score is reported as -0.628 ± 0.27.
Work on LLGAGLSITMWDGPQL yielded an amyloid nucleation score of 0.654 ± 0.23.
Work on LLGARDFGWGLHGLLGYRLG yielded an amyloid nucleation score of 0.123 ± 0.56.
LLGSLLIFPMES showed an amyloid nucleation score of -1.52 ± 0.78.
Substance LLICDSMHHTM has an amyloid nucleation score of 0.275 ± 0.48.
LLKTSASCIMHGEKQKWMLA showed an amyloid nucleation score of 0.671 ± 0.64.
LLLILTL gave an amyloid nucleation score of 0.21 ± 1.
LLLSFTCLRHTGWFFIRRCC showed an amyloid nucleation score of -0.631 ± 0.41.
Work on LLLVPIPH yielded an amyloid nucleation score of 1.07 ± 0.38.
Substance LLNLTSLLRKCLFKNRRKFI has an amyloid nucleation score of -0.972 ± 0.36.
In the case of LLPMGYAYISYSLLGNYMSG, the amyloid nucleation score is reported as -1.37 ± 0.48.
In the case of LLPSHISASNHIWWLKTS, the amyloid nucleation score is reported as 0.307 ± 0.31.
Work on LLPWGVTMVERLFIPIRCSD yielded an amyloid nucleation score of 0.308 ± 0.35.
With LLSGEDQLMKYLKSKNSCLW the amyloid nucleation score was -0.67 ± 0.79.
LLSKGLA showed an amyloid nucleation score of -0.682 ± 0.32.
LLSQKRGCHVSGHIGVEA showed an amyloid nucleation score of -0.218 ± 0.31.
LLSTDESCSTLNIYCIYTPR gave an amyloid nucleation score of 8.139 ± 0.045.
LLTAFTTYYLIYHSFSRYLA showed an amyloid nucleation score of -1.47 ± 1.1.
With LLTCEASRTPARSQLLASEG the amyloid nucleation score was 0.851 ± 0.4.
Work on LLTNAVRGLG yielded an amyloid nucleation score of 0.302 ± 0.56.
LLVKRCSAKPNLRRLLKLMC gave an amyloid nucleation score of -0.097 ± 0.76.
Substance LLVSSVSMTWHGKLSHTYFK has an amyloid nucleation score of 4.62 ± 0.059.
LLVVCSNLQNKVCRRNPEVF gave an amyloid nucleation score of -1.79 ± 0.49.
Substance LLWCIERG has an amyloid nucleation score of 0.946 ± 0.51.
LLWLPR gave an amyloid nucleation score of 0.376 ± 0.31.
LLWWMCQYEIFWDKMLYLES gave an amyloid nucleation score of 0.074 ± 1.
LLYCYSLFVVSFDYTFHQRF gave an amyloid nucleation score of 6.15 ± 0.062.
Substance LMAKQFIPGTYTLRGSSFHG has an amyloid nucleation score of -0.677 ± 0.3.
LMGGYLEYGSFVTT gave an amyloid nucleation score of 0.453 ± 0.51.
Substance LMMKEPDPSVC has an amyloid nucleation score of -0.101 ± 0.42.
With LMMTSVYLKLGWSFFIFRHR the amyloid nucleation score was -0.238 ± 1.1.
Substance LMSCRILRSAKRGHSNVKRF has an amyloid nucleation score of 0.254 ± 0.46.
With LMTSDAGSLAIVVVNCNFGT the amyloid nucleation score was 7.942 ± 0.023.
Substance LMVTKLSCSCFCLFSVPRSQ has an amyloid nucleation score of 0.783 ± 0.74.
LMWADLLLKKLILFA showed an amyloid nucleation score of -0.334 ± 0.64.
Substance LNAYGGRCSL has an amyloid nucleation score of 0.317 ± 0.5.
With LNGCSRILAFYMGCSCGGLM the amyloid nucleation score was -1.02 ± 0.76.
With LNGGKLWNHRDLWDRTGQVY the amyloid nucleation score was -0.266 ± 1.
Work on LNGSADTLD yielded an amyloid nucleation score of -0.755 ± 0.41.
LNHPTGCEYRWEARPNLCEK showed an amyloid nucleation score of -0.553 ± 0.63.
LNIIMGSSDFCPESFYKFW showed an amyloid nucleation score of 0.266 ± 1.
In the case of LNKNLLEKCLYRDLLLSVFW, the amyloid nucleation score is reported as -2.32 ± 1.1.
Work on LNLMVTW yielded an amyloid nucleation score of -0.926 ± 0.78.
In the case of LNSANSFWCVRRYCGTAQMQ, the amyloid nucleation score is reported as -1.29 ± 1.1.

Source: the supplement of paper PMC12042874
